Results: US20090023152A1 (published 2009)

T1: RFX5 (human, UniProt P48382 2-616)
T1 construct: also called RFX5 subunit of RFX
T1 sequence (looked up): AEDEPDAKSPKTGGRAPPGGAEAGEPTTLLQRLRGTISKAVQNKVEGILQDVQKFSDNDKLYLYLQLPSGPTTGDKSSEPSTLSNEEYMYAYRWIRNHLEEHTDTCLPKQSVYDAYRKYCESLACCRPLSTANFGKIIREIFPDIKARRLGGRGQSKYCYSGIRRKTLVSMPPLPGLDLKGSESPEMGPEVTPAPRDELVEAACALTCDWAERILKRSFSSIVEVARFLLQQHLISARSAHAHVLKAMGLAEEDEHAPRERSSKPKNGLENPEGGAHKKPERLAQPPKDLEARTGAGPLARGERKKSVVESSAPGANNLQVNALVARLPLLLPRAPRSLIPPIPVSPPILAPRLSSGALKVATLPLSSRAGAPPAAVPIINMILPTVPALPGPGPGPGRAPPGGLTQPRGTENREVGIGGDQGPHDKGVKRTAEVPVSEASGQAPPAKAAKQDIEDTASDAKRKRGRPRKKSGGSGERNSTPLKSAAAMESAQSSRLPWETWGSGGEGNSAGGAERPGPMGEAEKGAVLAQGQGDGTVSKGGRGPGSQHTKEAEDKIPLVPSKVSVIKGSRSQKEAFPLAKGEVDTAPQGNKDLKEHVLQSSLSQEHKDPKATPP

B1: RFXAP (other, human, UniProt O00287 1-272, looked up)
chain: MEAQGVAEGAGPGAASGVPHPAALAPAAAPTLAPASVAAAASQFTLLVMQPCAGQDEAAAPGGSVGAGKPVRYLCEGAGDGEEEAGEDEADLLDTSDPPGGGESAASLEDLEDEETHSGGEGSSGGARRRGSGGGSMSKTCTYEGCSETTSQVAKQRKPWMCKKHRNKMYKDKYKKKKSDQALNCGGTASTGSAGNVKLEESADNILSIVKQRTGSFGDRPARPTLLEQVLNQKRLSLLRSPEVVQFLQKQQQLLNQQVLEQRQQQFPGTSM
notes: also called RFXAP subunit of RFX

Key:
[1] = target: MHC-II enhanceosome assembled on the DRA promoter fragment (human) (UniProt P48382); experiment: promoter pull-down from crude cell extracts, immunoblot
[2] = target: T1, RFX5; experiment: EMSA supershift of co-translated subunits on X box probe
[3] = target: B1; experiment: as above

Row | percent of the CIITA recruited [1] [%] | binding result [2] | binding result [3] | Molecule
1 | < 1 |  |  | CIITA (wild type) (from UniProt P33076 1-1130)
2 |  | binds |  | B1
3 |  | binds | binds | FLAG-RFXANK (other, In vitro translated) DYKDDDDKMELTQPAEDLIQTQQTPASELGDPEDPGEEAADGSDTVVLSLFPCTPEPVNPEPDASVSSPQAGSSLKHSTTLTNRQRGNEVSALPATLDSLSIHQLAAQGELDQLKEHLRKGDNLVNKPDERGFTPLIWASAFGEIETVRFLLEWGADPHILAKERESALSLASTGGYTDIVGLLLERDVDINIYDWNGGTPLLYAVRGNHVKCVEALLARGADLTTEADSGYTPMDLAVALGYRKVQQVIENHILKLFQSNLVPADPE
